Measured values from patent US20170369590A1 (Genmab, published 2017).

Legend:
HER2ECDHis [1] = molecular target: T1, HER2ECDHis (human, UniProt P04626 23-653, biotinylated in the cross-block ELISA (sites not given)); assay: ELISA; competitor 006
T1 construct: range 1-653; expressed in HEK-293F; also called soluble HER2; biotinylated HER2ECDHis

HER2ECDHis [2] = molecular target: T1, HER2ECDHis; assay: ELISA; competitor C1
Protocol: (§1) Next, the ELISA wells were washed with PBST (PBS supplemented with 0.05% Tween-20 [Sigma-Aldrich, Zwijndrecht, The Netherlands]) and blocked for one hour at room temperature (RT) with PBSTC (PBST supplemented 2% [v/v] chicken serum [Gibco, Paisley, Scotland]). The ELISA wells were then washed with PBST and incubated for one hour at RT with HER2ECDHis serially diluted in PBSTC (0.25-2 μg/mL in 2-fold dilutions). […] The plate was thereafter washed with PBST and incubated for one hour with 0.1 μg/mL Streptavidin-poly-HRP (Sanquin, Amsterdam, The Netherlands) diluted in PBST. After washing, the reaction was visualized through a 15 minutes incubation with 2,2′-azino-bis (3-ethylbenzothiazoline-6-sulfonic acid) (ABTS: one ABTS tablet diluted in 50 mL ABTS buffer (Roche Diagnostics, Almere, The Netherlands)) at RT protected from light. The colorization was stopped by adding an equal volume of oxalic acid (Sigma-Aldrich, Zwijndrecht, The Netherlands). Fluorescence at 405 nm was measured on a microtiter plate reader (Biotek Instruments, Winooski, USA).
(§2) Each HER2 antibody was coated to the ELISA wells at the sub-optimal dose that was determined as described above. After blocking of the ELISA wells, the wells were incubated with the predetermined concentration of 1 μg/mL biotinylated HER2ECDHis in the presence or absence of an excess of a second (competitor) HER2 antibody. The ELISA was then performed as described above. […] Percentage competition was then determined as 100 minus the percentage of inhibition.

HER2ECDHis [3] = molecular target: T1, HER2ECDHis; assay: ELISA; competitor 005
Protocol: as §1, §2

HER2ECDHis [4] = molecular target: T1, HER2ECDHis; assay: ELISA; competitor 060
Protocol: as §1, §2

HER2ECDHis [5] = molecular target: T1, HER2ECDHis; assay: ELISA; competitor F5
Protocol: as §1, §2

[6] = molecular target: T2, human epidermal growth factor receptor 2 (HER2), membrane-bound on cells (human, UniProt P04626 23-1255); assay: cell-based or functional assay
[7] = molecular target: T2, human epidermal growth factor receptor …; assay: cell-based or functional assay; remark: listed apart in the source
[8] = molecular target: T2, human epidermal growth factor receptor …; assay: cell-based or functional assay; remark: listed apart in the source
HER2ECDHis [9] = molecular target: T1, HER2ECDHis; assay: ELISA; competitor 111
Protocol: as §1, §2

HER2ECDHis [10] = molecular target: T1, HER2ECDHis; assay: ELISA; competitor 059
Protocol: as §1, §2

HER2ECDHis [11] = molecular target: T1, HER2ECDHis; assay: ELISA; competitor Pert
Protocol: as §1, §2

HER2ECDHis [12] = molecular target: T1, HER2ECDHis; assay: ELISA; competitor Tras
Protocol: as §1, §2

HER2ECDHis [13] = molecular target: T1, HER2ECDHis; assay: ELISA; competitor 106
Protocol: as §1, §2

B1: HuMab 005 (antibody, V domains shown)
VH: EVQLVQSGAEVKKPGESLKISCKASGYSFHFYWIGWVRQMPGKGLEWMGSIYPGDSDTRYRPSFQGQVTISADKSISTAYLQWTSLKASDTAIYYCARQRGDYYYFYGMDVWGQGTTVTVSS
VL: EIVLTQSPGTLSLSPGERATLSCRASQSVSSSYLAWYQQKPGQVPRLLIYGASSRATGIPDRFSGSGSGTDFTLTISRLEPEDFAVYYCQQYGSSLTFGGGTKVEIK
notes: also called PC1014-005; TH1014-005
For B1, the “% binding vs no competitor” value (HER2ECDHis [1]) was 15%, the “% binding vs no competitor” value (HER2ECDHis [2]) was 157% and the “% binding vs no competitor” value (HER2ECDHis [3]) was 18%. The “% binding vs no competitor” value (HER2ECDHis [4]) was 12%, the “% binding vs no competitor” value (HER2ECDHis [5]) was 227% and the “% cells killed, AU565, anti-kappa-ETA'-conjugated” value [6] was 69.7%. The “EC50 of cell kill, AU565, anti-kappa-ETA'-conjugated” value [6] was 0.0151 mg/L, the “% cells killed, A431, anti-kappa-ETA'-conjugated” value [7] was 88.5% and the “EC50 of cell kill, A431, anti-kappa-ETA'-conjugated” value [7] was roughly 0.0101 mg/L. For the same binder, the “EC50, fab-CypHer5E internalization, AU565” value [8] was 0.0214 mg/L, the “Maximal MFI, fab-CypHer5E internalization, AU565” value [8] was 95100 MFI and the “% binding vs no competitor” value (HER2ECDHis [9]) was 32%. The “% binding vs no competitor” value (HER2ECDHis [10]) was 22%, the “% binding vs no competitor” value (HER2ECDHis [11]) was 115% and the “% binding vs no competitor” value (HER2ECDHis [12]) was 126%. For the same binder, the “% binding vs no competitor” value (HER2ECDHis [13]) was 54%.
